Data as given in patent publication US20060034860A1 (CELLVIR, published 2006).

Legend:
[1] = target: T1, sterol regulatory element-binding protein 1 (hSREBF1, prey15532), prey fragments (Human, UniProt P36956 1-1147); assay: yeast two-hybrid screen, bait TM_v1 (pB6), Human CEMC7 Random Primed prey library; table of bait-prey interactions
T1 construct: also called SREBP1; hSREBP 1
T1 sequence: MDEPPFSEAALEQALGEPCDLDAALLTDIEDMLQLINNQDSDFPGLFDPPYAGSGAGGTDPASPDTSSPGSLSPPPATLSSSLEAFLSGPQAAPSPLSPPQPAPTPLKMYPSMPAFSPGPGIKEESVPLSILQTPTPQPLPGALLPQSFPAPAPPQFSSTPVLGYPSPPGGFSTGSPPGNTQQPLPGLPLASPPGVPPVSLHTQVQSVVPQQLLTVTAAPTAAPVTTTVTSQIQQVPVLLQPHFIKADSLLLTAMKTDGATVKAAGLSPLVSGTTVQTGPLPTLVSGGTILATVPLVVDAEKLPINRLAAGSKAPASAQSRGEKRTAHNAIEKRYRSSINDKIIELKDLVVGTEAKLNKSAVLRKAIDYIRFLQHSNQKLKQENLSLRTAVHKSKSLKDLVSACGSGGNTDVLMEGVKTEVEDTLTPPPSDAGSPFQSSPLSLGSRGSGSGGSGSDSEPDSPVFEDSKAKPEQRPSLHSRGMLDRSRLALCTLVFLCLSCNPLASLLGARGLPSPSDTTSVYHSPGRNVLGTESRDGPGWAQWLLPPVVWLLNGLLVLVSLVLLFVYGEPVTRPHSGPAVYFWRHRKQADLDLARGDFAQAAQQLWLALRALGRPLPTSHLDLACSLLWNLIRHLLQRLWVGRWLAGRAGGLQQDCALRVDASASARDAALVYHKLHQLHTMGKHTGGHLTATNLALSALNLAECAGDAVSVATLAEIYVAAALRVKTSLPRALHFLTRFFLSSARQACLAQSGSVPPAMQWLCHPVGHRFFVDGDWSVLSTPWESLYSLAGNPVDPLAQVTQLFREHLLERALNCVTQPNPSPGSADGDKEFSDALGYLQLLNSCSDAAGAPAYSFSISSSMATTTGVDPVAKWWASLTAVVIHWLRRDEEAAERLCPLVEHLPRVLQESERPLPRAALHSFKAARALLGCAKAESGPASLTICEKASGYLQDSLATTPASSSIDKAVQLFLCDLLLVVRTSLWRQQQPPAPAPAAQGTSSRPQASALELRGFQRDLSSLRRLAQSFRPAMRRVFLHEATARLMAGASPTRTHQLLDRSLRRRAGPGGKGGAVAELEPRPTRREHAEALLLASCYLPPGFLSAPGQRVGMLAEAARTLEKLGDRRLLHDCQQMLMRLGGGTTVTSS

[2] = target: T2, sterol regulatory element binding protein 2 (hSREBF2, hgx33), prey fragments (Human, UniProt Q12772 1-1141); assay: as above
T2 construct: also called SREBP2
T2 sequence: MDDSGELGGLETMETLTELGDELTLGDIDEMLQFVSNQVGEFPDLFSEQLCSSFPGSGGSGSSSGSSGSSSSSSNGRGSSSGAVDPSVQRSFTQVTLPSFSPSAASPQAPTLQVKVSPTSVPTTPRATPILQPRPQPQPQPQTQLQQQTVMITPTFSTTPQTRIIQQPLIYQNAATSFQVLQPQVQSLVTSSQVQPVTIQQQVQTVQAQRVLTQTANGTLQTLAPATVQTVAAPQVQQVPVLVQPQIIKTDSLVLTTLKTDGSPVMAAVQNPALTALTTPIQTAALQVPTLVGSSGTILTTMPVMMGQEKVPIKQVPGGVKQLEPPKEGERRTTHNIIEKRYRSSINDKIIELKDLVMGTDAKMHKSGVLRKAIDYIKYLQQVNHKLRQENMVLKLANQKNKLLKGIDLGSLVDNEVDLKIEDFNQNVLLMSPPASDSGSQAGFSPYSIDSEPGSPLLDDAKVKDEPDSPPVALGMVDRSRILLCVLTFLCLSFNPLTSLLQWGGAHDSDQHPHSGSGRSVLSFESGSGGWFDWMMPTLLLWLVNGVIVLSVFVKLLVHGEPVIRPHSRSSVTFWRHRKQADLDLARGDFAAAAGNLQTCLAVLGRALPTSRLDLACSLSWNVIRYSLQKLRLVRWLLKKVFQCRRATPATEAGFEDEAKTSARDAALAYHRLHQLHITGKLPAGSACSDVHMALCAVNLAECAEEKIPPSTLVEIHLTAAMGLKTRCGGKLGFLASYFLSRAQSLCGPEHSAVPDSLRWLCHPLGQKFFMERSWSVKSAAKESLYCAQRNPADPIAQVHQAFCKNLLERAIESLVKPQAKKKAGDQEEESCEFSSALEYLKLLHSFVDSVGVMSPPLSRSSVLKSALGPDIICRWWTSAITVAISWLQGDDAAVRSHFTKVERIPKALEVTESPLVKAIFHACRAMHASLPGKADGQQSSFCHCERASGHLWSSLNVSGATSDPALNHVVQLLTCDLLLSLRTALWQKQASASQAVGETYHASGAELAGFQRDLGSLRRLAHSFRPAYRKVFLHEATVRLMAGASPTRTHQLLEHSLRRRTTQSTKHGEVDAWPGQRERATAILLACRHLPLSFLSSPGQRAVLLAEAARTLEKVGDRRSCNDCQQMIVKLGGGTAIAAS

[3] = target: T3, ATF6 alpha (prey34104, hATF6), prey fragments (Human, UniProt P18850 1-670); assay: as above
T3 construct: also called prey34106
T3 sequence: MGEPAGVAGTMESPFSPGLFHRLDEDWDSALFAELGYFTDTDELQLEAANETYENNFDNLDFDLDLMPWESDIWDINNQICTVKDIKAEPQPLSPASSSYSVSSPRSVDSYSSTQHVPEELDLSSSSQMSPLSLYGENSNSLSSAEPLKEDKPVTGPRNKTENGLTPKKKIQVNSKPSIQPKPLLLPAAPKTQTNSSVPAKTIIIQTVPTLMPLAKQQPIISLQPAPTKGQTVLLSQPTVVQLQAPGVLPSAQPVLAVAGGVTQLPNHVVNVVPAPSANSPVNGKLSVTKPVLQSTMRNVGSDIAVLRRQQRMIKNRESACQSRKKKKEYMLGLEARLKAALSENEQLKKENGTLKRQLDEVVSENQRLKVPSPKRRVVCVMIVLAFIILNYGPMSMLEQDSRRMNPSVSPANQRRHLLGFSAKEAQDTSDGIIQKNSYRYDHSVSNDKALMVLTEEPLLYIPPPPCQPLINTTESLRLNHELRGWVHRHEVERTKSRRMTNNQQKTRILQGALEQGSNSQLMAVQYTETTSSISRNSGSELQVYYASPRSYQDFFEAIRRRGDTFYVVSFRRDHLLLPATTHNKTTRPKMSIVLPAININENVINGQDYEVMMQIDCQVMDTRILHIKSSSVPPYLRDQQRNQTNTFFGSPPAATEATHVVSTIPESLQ

[4] = target: T4, PolyrC-Binding Protein PCBP1 (prey6634), prey fragments (Human, UniProt Q15365 1-356); assay: yeast two-hybrid screen, bait VPU_v1 (pB27), Human CEMC7 dT Primed prey library; table of bait-prey interactions
T4 construct: also called polyRC BP1; HNRPE1

[5] = target: T5, Human RNUT1 (prey024605), prey fragments (Human, UniProt O95149 1-360); assay: yeast two-hybrid screen, bait IN (pB27), CEMC7 random primed cDNA prey library; table of bait-prey interactions
T5 construct: also called Snurportin1; Snurportin

[6] = target: Human EIF3S3 (prey024567), prey fragments (Human, UniProt O15372 1-352); assay: yeast two-hybrid screen, bait IN (pB27), CEMC7 oligo dT primed cDNA prey library; table of bait-prey interactions
[7] = target: T6, Human HBOA (prey001626), prey fragments (Human, UniProt O95251 1-611); assay: as above
T6 construct: also called HBO1
T6 sequence (O95251 whole entry, the tested form may be a part): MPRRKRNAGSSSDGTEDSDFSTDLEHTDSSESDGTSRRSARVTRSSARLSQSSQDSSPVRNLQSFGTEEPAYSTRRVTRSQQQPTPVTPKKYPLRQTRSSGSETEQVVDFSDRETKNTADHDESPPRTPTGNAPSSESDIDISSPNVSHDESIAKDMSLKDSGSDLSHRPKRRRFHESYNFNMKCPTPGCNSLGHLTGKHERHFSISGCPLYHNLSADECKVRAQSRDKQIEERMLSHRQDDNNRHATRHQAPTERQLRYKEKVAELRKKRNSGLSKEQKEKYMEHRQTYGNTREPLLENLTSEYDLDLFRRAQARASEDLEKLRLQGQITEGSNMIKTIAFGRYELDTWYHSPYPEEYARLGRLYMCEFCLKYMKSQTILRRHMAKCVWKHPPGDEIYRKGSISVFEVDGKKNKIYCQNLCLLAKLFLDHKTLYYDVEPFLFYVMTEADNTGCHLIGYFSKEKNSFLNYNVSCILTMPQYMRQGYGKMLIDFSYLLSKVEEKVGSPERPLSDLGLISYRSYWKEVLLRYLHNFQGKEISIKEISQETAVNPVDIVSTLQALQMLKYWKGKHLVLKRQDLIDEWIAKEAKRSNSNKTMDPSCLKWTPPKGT

T4 sequence (Q15365 whole entry, the tested form may be a part): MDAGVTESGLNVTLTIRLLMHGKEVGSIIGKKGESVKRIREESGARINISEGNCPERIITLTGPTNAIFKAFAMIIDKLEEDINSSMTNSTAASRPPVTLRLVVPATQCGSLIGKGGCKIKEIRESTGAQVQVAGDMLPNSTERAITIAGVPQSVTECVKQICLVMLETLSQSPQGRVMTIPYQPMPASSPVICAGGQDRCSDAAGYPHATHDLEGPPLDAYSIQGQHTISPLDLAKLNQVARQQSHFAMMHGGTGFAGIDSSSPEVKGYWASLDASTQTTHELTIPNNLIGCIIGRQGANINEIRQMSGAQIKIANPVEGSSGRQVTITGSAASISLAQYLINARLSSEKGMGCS
Sequence of Human EIF3S3 (prey024567), prey fragments (O15372 whole entry, the tested form may be a part): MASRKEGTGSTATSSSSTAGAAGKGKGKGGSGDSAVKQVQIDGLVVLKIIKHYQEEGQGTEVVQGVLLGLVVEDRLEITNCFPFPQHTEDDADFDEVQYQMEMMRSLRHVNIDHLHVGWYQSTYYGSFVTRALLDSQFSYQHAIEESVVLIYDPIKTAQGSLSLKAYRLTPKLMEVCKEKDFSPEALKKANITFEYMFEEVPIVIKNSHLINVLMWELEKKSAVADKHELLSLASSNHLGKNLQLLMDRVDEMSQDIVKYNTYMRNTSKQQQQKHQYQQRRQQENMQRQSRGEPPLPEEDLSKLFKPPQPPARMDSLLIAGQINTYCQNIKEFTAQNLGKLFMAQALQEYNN
T5 sequence (O95149 whole entry, the tested form may be a part): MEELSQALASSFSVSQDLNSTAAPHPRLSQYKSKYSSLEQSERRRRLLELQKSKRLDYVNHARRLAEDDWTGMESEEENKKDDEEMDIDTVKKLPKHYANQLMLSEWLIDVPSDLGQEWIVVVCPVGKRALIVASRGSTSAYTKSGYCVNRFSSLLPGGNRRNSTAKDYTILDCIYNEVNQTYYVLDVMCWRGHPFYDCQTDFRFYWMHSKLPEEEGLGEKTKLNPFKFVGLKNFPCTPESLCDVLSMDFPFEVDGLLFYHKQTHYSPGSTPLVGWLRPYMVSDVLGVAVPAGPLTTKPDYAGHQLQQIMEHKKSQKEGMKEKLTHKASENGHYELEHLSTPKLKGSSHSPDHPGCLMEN

B1: cytoplasmic domain of HIV-1 Env TM Gp41, bait TM_v1 (other)
chain: VVLSIVNRVRQGYSPLSFQTHLPAQRGPDRPDGIEEEGGERDRDRSGPLVDGFLAIIWVDLRSLCLFSYHRLRDLLLIVTRIVELLGRRGWGVLKYWWNLLQYWIQELKNSAVSLLNATAIAVAEGTDRVIEILQRAFRAVLHIPVRIRQGLERALL
notes: also called TM cyto; TM Gp41 cytoplasmic domain
Q: Does B1 bind [1]?
A: Result: binds

Q: Does B1 bind [2]?
A: Result: binds

Q: Does B1 bind [3]?
A: Result: binds

B2: HIV-1 Vpu, bait VPU_v1 (other)
chain: LQSLQVLAIVALVVATIIAIVVWTIVFIEYRKILRQRKIDRLINRITERAEDSGNESDGDQEELSALVERGHLAPWDVDDL
notes: It holds the N-terminal transmembrane anchor domain
Q: Does B2 bind [4]?
A: Result: binds

B3: HIV-1 Integrase (IN), bait IN (enzyme)
chain: FLDGIDKAQEEHEKYHSNWRAMASDFNLPPVVAKEIVASCDKCQLKGEAMHGQVDCSPGIWQLDCTHLEGKVILVAVHVASGYIEAEVIPAETGQETAYFLLKLAGRWPVTTIHTDNGSNFTSATVKAACWWAGIKQEFGIPYNPQSQGVVESMNKELKKIIGQVRDQAEHLKTAVQMAVFIHNFKRKGGIGGYSAGERIVDIIATDIQTKELQKQITKIQNFRVYYRDSRDPLWKGPAKLLWKGEGAVVIQDNSDIKVVPRRKAKIIRDYGKQMAGDDCVAGRQDED
Q: Does B3 bind [5]?
A: Result: binds

Q: Does B3 bind [6]?
A: Result: binds

Q: Does B3 bind [7]?
A: Result: binds
